Experiments:
[1] = target: Nup358-min (residues 2147–2240 of human Nup358) (human, UniProt P49792 2147-2240); test: SEC-MALS
SEC-MALS = target: the molecule itself; test: SEC-MALS

B1: KLC2^TPR (residues 196–480 of mouse kinesin-1 light chain 2 isoform 1) (domain or fragment, UniProt O88448 196-480, looked up)
chain: RLRTLHNLVIQYASQGRYEVAVPLCKQALEDLEKTSGHDHPDVATMLNILALVYRDQNKYKDAAHLLNDALAIREKTLGKDHPAVAATLNNLAVLYGKRGKYKEAEPLCKRALEIREKVLGKFHPDVAKQLSNLALLCQNQGKAEEVEYYYRRALEIYATRLGPDDPNVAKTKNNLASCYLKQGKYQDAETLYKEILTRAHEKEFGSVNGENKPIWMHAEEREESKDKRRDRRPMEYGSWYKACKVDSPTVNTTLRTLGALYRPEGKLEAAHTLEDCASRSRKQG
[1]
  stoichiometry N: 1

B2: Nup358-KLC2-fusion protein (other, human | mouse, UniProt P49792 2147-2240, looked up)
chain: LDIPLQTPHKLVDTGRAAKLIQRAEEMKSGLKDFKTFLTNDQTKVTEEENKGSGTGAAGASDTTIKPNPENTGPTLEWDNYDLREDALDDSVSSRLRTLHNLVIQYASQGRYEVAVPLCKQALEDLEKTSGHDHPDVATMLNILALVYRDQNKYKDAAHLLNDALAIREKTLGKDHPAVAATLNNLAVLYGKRGKYKEAEPLCKRALEIREKVLGKFHPDVAKQLSNLALLCQNQGKAEEVEYYYRRALEIYATRLGPDDPNVAKTKNNLASCYLKQGKYQDAETLYKEILTRAHEKEFGSVNGENKPIWMHAEEREESKDKRRDRRPMEYGSWYKACKVDSPTVNTTLRTLGALYRPEGKLEAAHTLEDCASRSRKQG
SEC-MALS
  stoichiometry N: 2
